Measurements: US20220177587A1, “METHODS AND USES OF VARIANT CD80 FUSION PROTEINS AND RELATED CONSTRUCTS” (Alpine Immune Sciences, Inc., priority 2018, published 2022)

Legend:
[1] = biological target: CD28 (human) (UniProt P10747); assay: flow cytometry, Jurkat cells (CD28)
[2] = biological target: human CTLA-4 (human) (UniProt P16410); assay: flow cytometry, CHO cells stably expressing CTLA4
[3] = biological target: PD-L1 (human) (UniProt Q9NZQ7); assay: flow cytometry, CHO cells stably expressing PD-L1
[4] = biological target: human CTLA-4 (human) (UniProt P16410); assay: flow cytometry, CHO cells expressing huCTLA-4
[5] = biological target: PD-L1 (human) (UniProt Q9NZQ7); assay: flow cytometry, CHO cells expressing huPD-L1
Target sequence in this assay (Q9NZQ7 19-290): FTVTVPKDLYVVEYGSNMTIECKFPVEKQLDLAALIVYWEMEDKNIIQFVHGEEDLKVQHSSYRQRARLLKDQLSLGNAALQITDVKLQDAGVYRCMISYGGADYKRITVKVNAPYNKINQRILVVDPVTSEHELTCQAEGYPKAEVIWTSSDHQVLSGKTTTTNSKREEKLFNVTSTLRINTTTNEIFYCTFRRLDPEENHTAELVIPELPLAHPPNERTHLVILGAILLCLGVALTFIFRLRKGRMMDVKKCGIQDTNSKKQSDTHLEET

[6] = biological target: CD28 (human) (UniProt P10747)
[7] = biological target: PD-L1 (human) (UniProt Q9NZQ7); assay: flow cytometry, CHO cells expressing PD-L1
Target sequence in this assay (Q9NZQ7 19-290): as above

[8] = biological target: human CTLA-4 (human) (UniProt P16410); assay: flow cytometry, CHO cells expressing CTLA4
[9] = biological target: CD28 (human) (UniProt P10747); remark: listed apart in the source

human CTLA-4 (human), sequence (P16410 36-223): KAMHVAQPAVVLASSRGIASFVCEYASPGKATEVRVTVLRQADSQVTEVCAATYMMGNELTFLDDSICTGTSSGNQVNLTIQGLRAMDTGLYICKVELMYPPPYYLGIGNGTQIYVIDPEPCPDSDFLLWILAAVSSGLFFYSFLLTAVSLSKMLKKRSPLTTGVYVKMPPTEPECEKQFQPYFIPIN
wild-type CD80 IgV-Fc (inert), as in Example 12 (Fc fusion), sequence (chain): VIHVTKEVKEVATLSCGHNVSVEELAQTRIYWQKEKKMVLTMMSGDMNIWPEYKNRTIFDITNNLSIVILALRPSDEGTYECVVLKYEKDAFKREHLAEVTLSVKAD

CD80 IgV-Fc deltaE10-A98 (Fc fusion)
MFI at 33.3 nM [1]: 15 MFI | MFI at 33.3 nM [2]: 125 MFI | MFI at 33.3 nM [3]: 45 MFI

CD80 E35D/M47V/N48K/V68M/K89N IgV-Fc, GS(G4S)5 linker (Fc fusion)
MFI at 33.3 nM [3]: 22700 MFI

variant CD80 IgV-Fc (inert) H18Y/A26N/E35D/M47F/V68M/A71G/D90G (Fc fusion)
MFI at 33.3 nM [1]: 82.2 MFI | MFI at 33.3 nM [3]: 26500 MFI

variant CD80 IgV-Fc E35D/V68M/K89N (Fc fusion)
MFI at 33.3 nM [4]: 24800 MFI

variant CD80 IgV-Fc D46V/M47L (Fc fusion)
MFI at 33.3 nM [4]: 49700 MFI | MFI at 33.3 nM [5]: 3900 MFI

variant CD80 IgV-Fc (inert) H18V/A26P/E35D/M47V/V68L/A71G (Fc fusion)
MFI at 33.3 nM [2]: 13700 MFI | MFI at 33.3 nM [3]: 55400 MFI

variant CD80 IgV-Fc (inert) H18L/E35D/M47V/V68M/A71G/D90G (Fc fusion)
MFI at 33.3 nM [1]: 6350 MFI | MFI at 33.3 nM [2]: 20300 MFI | MFI at 33.3 nM [3]: 64800 MFI

variant CD80 IgV-Fc (inert) H18V/A26G/E35D/M47V/V68M/A71G/D90G (Fc fusion)
MFI at 33.3 nM [1]: 8190 MFI | MFI at 33.3 nM [2]: 25400 MFI | MFI at 33.3 nM [3]: 66200 MFI

wild-type CD80 IgV-Fc (inert), as in Example 12 (Fc fusion)
MFI at 33.3 nM [1]: 102 MFI | MFI at 33.3 nM [2]: 1380 MFI | MFI at 33.3 nM [3]: 165 MFI

Wildtype CD80 ECD-Fc (effector Fc, Example 31) (Fc fusion)
MFI at 66.7 nM [1]: 120 | EC50 [2]: 4 nM | MFI at 66.7 nM [2]: 25300 | MFI at 66.7 nM [3]: 104

variant CD80 IgV-Fc (inert) H18V/A26R/E35D/M47L/V68M/A71G/D90G (Fc fusion)
MFI at 33.3 nM [1]: 9620 MFI | MFI at 33.3 nM [2]: 23200 MFI | MFI at 33.3 nM [3]: 73200 MFI

CD80 E35D/D46V/M47L/V68M/L85Q/E88D IgV-Fc, GS(G4S)3 linker (Fc fusion)
MFI at 33.3 nM [1]: 267 MFI | MFI at 33.3 nM [3]: 22600 MFI

WT CD80 ECD-Fc (effector) (Fc fusion)
IL-2 release, primary T cells + K562/OKT3 (No PD-L1), 100 nM [6]: 23100 | IL-2 release, primary T cells + K562/OKT3/PD-L1, 100 nM [6]: 8390

WT CD80 ECD-Fc (R&D Systems) (Fc fusion)
EC50 [1]: 164 nM | MFI at 11.1 nM [1]: 139 MFI | EC50 [3]: 31.2 nM | MFI at 11.1 nM [3]: 86 MFI

CD80 T13R/Q33L/E35D/M47V/T62S/V68M/L85M IgV-Fc (Fc fusion)
Fold change to WT CD80 [1]: 0.5 fold | MFI at 33.3 nM [1]: 16 MFI | Fold change to WT CD80 [7]: 77 fold | MFI at 33.3 nM [7]: 3970 MFI | MFI at 33.3 nM [8]: 105 MFI

variant CD80 IgV-Fc (inert) H18R/A26P/E35D/D46N/M47V/V68M/A71G/D90P (Fc fusion)
MFI at 33.3 nM [2]: 17300 MFI | MFI at 33.3 nM [3]: 29300 MFI

CD80 H18Y/E35D/M38I/M47L/V68M/L85M IgV-Fc (Fc fusion)
Fold change to WT CD80 [1]: 0.5 fold | MFI at 33.3 nM [1]: 16.7 MFI | Fold change to WT CD80 [7]: 69.7 fold | MFI at 33.3 nM [7]: 3590 MFI | MFI at 33.3 nM [8]: 139 MFI

CD80 E35D/M47V/N48K/V68M/K89N IgV-Fc, GS(G4S)3 linker (Fc fusion)
MFI at 33.3 nM [1]: 2110 MFI | MFI at 33.3 nM [3]: 24200 MFI

variant CD80 IgV-Fc E35D/D46V (Fc fusion)
MFI at 33.3 nM [4]: 50100 MFI | MFI at 33.3 nM [5]: 3970 MFI

CD80 IgV-Fc E24D/Q27R/E35D/T41S/M47V/L85Q (Fc fusion)
MFI at 33.3 nM [1]: 66 MFI | MFI at 33.3 nM [2]: 13900 MFI | MFI at 33.3 nM [3]: 2860 MFI

CD80 E35D/D46E/M47L/V68M/T79M/L85M/L97Q IgV-Fc (Fc fusion)
Fold change to WT CD80 [1]: 0.5 fold | MFI at 33.3 nM [1]: 14 MFI | Fold change to WT CD80 [7]: 89.7 fold | MFI at 33.3 nM [7]: 4620 MFI | MFI at 33.3 nM [8]: 96 MFI

CD80 (E35D/D46E/M47V/V68M/D90G/K93E) ECD-Fc (Fc fusion)
EC50 [2]: 10.5 nM | MFI at 66.7 nM [2]: 24600 | MFI at 66.7 nM [3]: 287

variant CD80 IgV-Fc D46V/M47L/V68M/L85Q (Fc fusion)
MFI at 33.3 nM [4]: 32500 MFI | MFI at 33.3 nM [5]: 29700 MFI

variant CD80 IgV-Fc V68M/K89N (Fc fusion)
MFI at 33.3 nM [4]: 2330 MFI | MFI at 33.3 nM [5]: 538 MFI

variant CD80 IgV-Fc E35D/D46V/M47L/V68M (Fc fusion)
MFI at 33.3 nM [4]: 34300 MFI | MFI at 33.3 nM [5]: 29300 MFI

CD80 H18Y/E35D/M47L/Y53F/V68M/A71G/K93R/E95V IgV-Fc (Fc fusion)
MFI at 33.3 nM [1]: 334 MFI | MFI at 33.3 nM [7]: 23400 MFI | Fold change to WT CD80 [8]: 10.5 fold | MFI at 33.3 nM [8]: 18400 MFI

WT IgG1 Fc Control
IL-2 release, primary T cells + K562/OKT3 (No PD-L1), 100 nM [6]: 6260

CD80 E35D/M43L/L70M IgV-Fc (inert) (Fc fusion)
Jurkat/IL2 reporter RLU at 50 nM, CHO/OKT3 aAPC without PD-L1 [9]: 515 RLU

CD80 Q27L/Q33L/E35D/T41S/M47V/N48K/V68M/L85M IgV-Fc (Fc fusion)
Fold change to WT CD80 [1]: 0.5 fold | MFI at 33.3 nM [1]: 15 MFI | Fold change to WT CD80 [7]: 320 fold | MFI at 33.3 nM [7]: 16500 MFI | MFI at 33.3 nM [8]: 178 MFI

variant CD80 IgV-Fc (inert) H18V/A26N/E35D/M47V/V68M/A71G (Fc fusion)
MFI at 33.3 nM [2]: 22400 MFI | MFI at 33.3 nM [3]: 68200 MFI
